Article PMC2787660

Key:
Experiment in all cases: cross-linking
[1] = target: apoA-I E198K (human)
[2] = target: apoA-I L(42,44)D (human)
[3] = target: apoA-I L(46,47)D (human)

Substance: apoA-I E198K (natural protein)
- stoichiometry N [1]: 2

Substance: apoA-I L(42,44)D (natural protein)
- stoichiometry N [2]: 2

Substance: apoA-I L(46,47)D (natural protein)
- stoichiometry N [3]: 2
